The term Kd denotes the constant that tells how readily two partners part at equilibrium. Broadly, the koff is a measure of how fast the partners let go of each other. One may read the kon as the rate constant with which the complex forms.

Kd, koff and kon data for 23 molecules are collected here from US20220177594A1 (ZOETIS SERVICES, published 2022).

Changes are numbered by the printed parent chain.

B1: Mu_09E09_VL (SEQ ID NO: 37)_N34A (antibody, V domains shown)
VH: DVKLVESGEGLVKPGGSLKLSCAASGFTFSSYAMSWVRQTPEKRLEWVAYISSGGDYIYYADTVKGRFTISRDNARNTLYLQMSSLKSEDTAMYYCTRDPITGTFAYWGQGTLVTVSA
VL: DLQMTQTTSSLSASLGDRVTISCRASQDINNYLAWYQQKPDGTVKLLIYYTSTLHSGVPSRFSGSGSGTDYSLTISNLEQEDIATYFCQQGNTLPWTFGGGTKLEIKR
B2: Mu_09E09_VL (SEQ ID NO: 37)_G91A (antibody, V domains shown)
VH: B1 VH
VL: B1 VL with A34N, G91A
B3: Mu_10F07_VL (SEQ ID NO: 41)_W96A (antibody, V domains shown)
VH: B1 VH with A49T, I58F
VL: B1 VL with L2I, N30T, A34N, Y71F, N92H, T93M, W96A
B4: Mu_10F07_VH (SEQ ID NO: 39)_Y107A (antibody, V domains shown)
VH: B1 VH with A49T, I58F, Y107A
VL: B1 VL with L2I, N30T, A34N, Y71F, N92H, T93M
B5: Mu_09E09_VL (SEQ ID NO: 37)_Y50A (antibody, V domains shown)
VH: B1 VH
VL: B1 VL with A34N, Y50A
B6: Mu_09E09_VL (SEQ ID NO: 37)_N92A (antibody, V domains shown)
VH: B1 VH
VL: B1 VL with A34N, N92A
B7: Mu_09E09_VL (SEQ ID NO: 37)_L94A (antibody, V domains shown)
VH: B1 VH
VL: B1 VL with A34N, L94A
B8: Mu_10F07_VL (SEQ ID NO: 41)_Y50A (antibody, V domains shown)
VH: B1 VH with A49T, I58F
VL: B1 VL with L2I, N30T, A34N, Y50A, Y71F, N92H, T93M
B9: Mu_09E09_VL (SEQ ID NO: 37)_W96A (antibody, V domains shown)
VH: B1 VH
VL: B1 VL with A34N, W96A
B10: Mu_09E09_VL (SEQ ID NO: 37)_Q90A (antibody, V domains shown)
VH: B1 VH
VL: B1 VL with A34N, Q90A
B11: Mu_10F07_VH (SEQ ID NO: 39)_D99A (antibody, V domains shown)
VH: B1 VH with A49T, I58F, D99A
VL: B1 VL with L2I, N30T, A34N, Y71F, N92H, T93M
B12: Mu_10F07_VL (SEQ ID NO: 41)_T53A (antibody, V domains shown)
VH: B1 VH with A49T, I58F
VL: B1 VL with L2I, N30T, A34N, T53A, Y71F, N92H, T93M
B13: Mu_10F07_VL (SEQ ID NO: 41)_T97A (antibody, V domains shown)
VH: B1 VH with A49T, I58F
VL: B1 VL with L2I, N30T, A34N, Y71F, N92H, T93M, T97A
B14: Mu_10F07_VH (SEQ ID NO: 39)_I101A (antibody, V domains shown)
VH: B1 VH with A49T, I58F, I101A
VL: B1 VL with L2I, N30T, A34N, Y71F, N92H, T93M
B15: Mu_10F07_VL (SEQ ID NO: 41)_L33A (antibody, V domains shown)
VH: B1 VH with A49T, I58F
VL: B1 VL with L2I, N30T, L33A, A34N, Y71F, N92H, T93M
B16: Mu_19F07_VH (SEQ ID NO: 47)_Y33A (antibody, V domains shown)
VH: EVKLVESEGGLVQPGSSMKLSCTASGFTFSDYAMAWVRQVPEKGLEWVANINYDGSSTYYLDSLKSRFIISRDNAKNILYLQMSSLKSEDTATYYCARGLTWDFDVWGTGTTVTVSS
VL: DIVMTQSHKFMSPSVGDRVSITCKASQDVDTAVAWYQQKPGQSPKLLIYLASTRHTGVPDRFTGSGSGTDFTLTISNVQSEDLADYFCQQYSRFPLTFGAGTKLELKR
B17: Mu_19F07_VH (SEQ ID NO: 47)_Y59A (antibody, V domains shown)
VH: B16 VH with A33Y, Y59A
VL: B16 VL
B18: Mu_19F07_VH (SEQ ID NO: 47)_F104A (antibody, V domains shown)
VH: B16 VH with A33Y, F104A
VL: B16 VL
B19: Mu_19F07_VH (SEQ ID NO: 47)_W102A (antibody, V domains shown)
VH: B16 VH with A33Y, W102A
VL: B16 VL
B20: Mu_19F07_VL (SEQ ID NO: 49)_T53A (antibody, V domains shown)
VH: B16 VH with A33Y
VL: B16 VL with T53A
B21: Mu_19F07_VL (SEQ ID NO: 49)_L50A (antibody, V domains shown)
VH: B16 VH with A33Y
VL: B16 VL with L50A
B22: Mu_19F07_VH (SEQ ID NO: 47)_S56A (antibody, V domains shown)
VH: B16 VH with A33Y, S56A
VL: B16 VL
B23: Mu_19F07_VH (SEQ ID NO: 47)_Y60A (antibody, V domains shown)
VH: B16 VH with A33Y, Y60A
VL: B16 VL

The target of the experiment is T1, ANTIBODY EXPRESSION CONTROL.
T1 construct: also called mouse anti-canine antibody (capture reagent of the expression control ELISA)
Kind of experiment: SPR Biacore, expression control. In a few lines: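 Surface plasmon resonance with OSMR amine-coupled at 5 μg/mL via NHS/EDC, ethanolamine-quenched, and candidate mAbs flowed over as analyte. ka, kd and KD derived from 1:1 model fits.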
In general terms: SPR reads the build-up and loss of mass on a sensor chip optically.
On to B1, for which the Kd came out at 0.317 nM, the koff stood at 8.91e-05 s⁻¹ and the kon is 281000 M⁻¹ s⁻¹.

Regarding B2, the Kd was determined as 0.306 nM, the koff amounted to 8.96e-05 s⁻¹ and the kon amounted to 292000 M⁻¹ s⁻¹.

As for B3, the Kd amounted to 0.884 nM, the koff turned out to be 9.49e-05 s⁻¹ and the kon is 107000 M⁻¹ s⁻¹.

In the case of B4, the Kd was determined as 0.446 nM, the dissociation rate constant (koff) is 4.44e-05 s⁻¹ and the kon is 99500 M⁻¹ s⁻¹.

In the case of B5, the Kd came out at 0.257 nM, the koff came to 7.96e-05 s⁻¹ and the kon was 310000 M⁻¹ s⁻¹.

With B6, the Kd is 0.257 nM, the koff came out at 7.59e-05 s⁻¹ and the kon worked out at 296000 M⁻¹ s⁻¹.

As for B7, the Kd stood at 0.25 nM, the koff was found to be 7.63e-05 s⁻¹ and the kon was 305000 M⁻¹ s⁻¹.

In the case of B8, the Kd was 0.6 nM, the koff was 0.000105 s⁻¹ and the kon was determined as 174000 M⁻¹ s⁻¹.

Consider B9, for which the Kd was 0.345 nM, the koff amounted to 9.76e-05 s⁻¹ and the kon is 283000 M⁻¹ s⁻¹.

In the case of B10, the Kd was found to be 0.249 nM, the koff was determined as 7.12e-05 s⁻¹ and the kon was found to be 286000 M⁻¹ s⁻¹.

Take B11: the Kd is 1.01 nM, the koff turned out to be 0.000118 s⁻¹ and the kon was found to be 117000 M⁻¹ s⁻¹.

On to B12, for which the Kd stood at 2.07 nM, the koff amounted to 0.000275 s⁻¹ and the kon came out at 132000 M⁻¹ s⁻¹.

Regarding B13, the Kd was determined as 0.805 nM, the koff was determined as 8.07e-05 s⁻¹ and the kon is 100000 M⁻¹ s⁻¹.

Take B14: the Kd was 0.445 nM, the koff was 4.49e-05 s⁻¹ and the kon came to 101000 M⁻¹ s⁻¹.

On to B15, for which the Kd was 0.812 nM, the koff stood at 8.43e-05 s⁻¹ and the kon was found to be 104000 M⁻¹ s⁻¹.

With B16, the Kd amounted to 0.202 nM, the koff was 6.08e-05 s⁻¹ and the kon was 301000 M⁻¹ s⁻¹.

For B17, the Kd was found to be 0.359 nM, the koff was 0.000116 s⁻¹ and the kon was 324000 M⁻¹ s⁻¹.

For the molecule B18, the Kd came out at 0.156 nM, the koff stood at 5.09e-05 s⁻¹ and the kon came out at 326000 M⁻¹ s⁻¹.

As to B19, the Kd worked out at 0.139 nM, the koff is 4.35e-05 s⁻¹ and the kon is 312000 M⁻¹ s⁻¹.

Turning to B20, the Kd came to 0.123 nM, the koff is 3.75e-05 s⁻¹ and the kon is 305000 M⁻¹ s⁻¹.

Regarding B21, the Kd was determined as 0.164 nM, the koff came out at 4.8e-05 s⁻¹ and the kon turned out to be 293000 M⁻¹ s⁻¹.

As to B22, the Kd turned out to be 4.08 nM, the koff was determined as 0.000646 s⁻¹ and the kon was 159000 M⁻¹ s⁻¹.

As for B23, the Kd stood at 4.06 nM, the koff worked out at 0.00061 s⁻¹ and the kon turned out to be 150000 M⁻¹ s⁻¹.
